Values belong to the molecule of their own block, whether it stands above or below them.
Tests used:
IL-11 signalling = conditions: binds IL-11Rα, engagement of gp130 homodimer fails; cited from earlier work
[1] = biological target: T1, Mouse IL-11 protein in tissue lysates of C57Bl/6J mice (mouse, UniProt P47873 22-199, limits assumed); assay: western blot of mouse liver lysates (SDS-PAGE, PVDF), X203 as primary antibody, anti-mouse HRP and ECL detection
T1 sequence (looked up): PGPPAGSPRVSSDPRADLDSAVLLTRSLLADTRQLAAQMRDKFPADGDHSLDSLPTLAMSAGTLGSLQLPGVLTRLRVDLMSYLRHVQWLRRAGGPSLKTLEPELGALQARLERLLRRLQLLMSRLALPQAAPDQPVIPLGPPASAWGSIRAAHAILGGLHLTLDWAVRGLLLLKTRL
Protocol: Briefly, livers were harvested from mice and homogenized in radioimmunoprecipitation assay (RIPA) lysis and Extraction Buffer (ThermoFisher Scientific) containing protease and phosphatase inhibitors (Roche), followed by centrifugation to clear the lysate. Protein concentrations were determined by Bradford assay (Bio-Rad). Equal amounts of protein lysates were separated by SDS-PAGE, transferred to PVDF membranes, blocked for 1 h with 3% BSA, and incubated overnight with X203 (1:2000) or anti-GAPDH (1:1000, CST). Protein bands were visualized using the ECL detection system (Pierce) with the appropriate secondary antibodies: anti-mouse HRP and anti-rabbit HRP (1:5000, CST). […]

[2] = system: Primary human cardiac fibroblasts; assay: IL-11 stimulation time course, western blot; format: cell-based; conditions: IL-11 10 ng/ml, 15 mins, 2, 4, 6 or 24 hours
Protocol: FIG. 15. Western blot image showing the levels of p-LKB1, LKB1, p-mTOR, mTOR in primary human cardiac fibroblasts that are stimulated with IL11 (10 ng/ml), for 15 minutes, 2 hours, 4 hours, 6 hours, or 24 hours.
Primary human cardiac fibroblasts were stimulated with IL-11 (10 ng/ml), for 15 mins, 2, 4, 6, or 24 hours and the levels of phosphorylated LKB1 (p-LKB1), LKB1, phosphorylated mTOR (p-mTOR) and mTOR were measured by western blot.

[3] = system: Human hepatic stellate cells; assay: IL-11 stimulation of cells overexpressing wild-type LKB1, western blot; format: cell-based; conditions: IL11 10 ng/ml, 2 hours
Protocol: (§1) FIG. 17. Human hepatic stellate cells (17A) and hepatocytes (17B) were infected with AAV8 encoding human LKB1 (multiplicity of infection=20) for 24 hours and then stimulated with IL11 (10 ng/ml) for 2 hours. Cell lysates were immunoblotted for the proteins shown.
(§2) Human hepatic stellate cells (FIG. 17A) and human hepatocytes (FIG. 17B) were engineered to overexpress the wild-type LKB1 and a double mutant S325A, S428A (DM-LKB1). FIGS. 17A and 17B confirm that stimulation with IL-11 induces phosphorylation at […] in the WT LKB1 cells. As expected, phosphorylation is not observed in the double mutant LKB1 cells.

human hepatocytes [4] = assay: as above; format: cell-based; conditions: IL11 10 ng/ml, 2 hours
Protocol: as §1, §2

IL-11Rα = biological target: T2, IL-11Rα (Homo sapiens, UniProt Q14626); conditions: low affinity binding to IL-11Rα alone; cited from earlier work
T2 sequence (Q14626 23-422): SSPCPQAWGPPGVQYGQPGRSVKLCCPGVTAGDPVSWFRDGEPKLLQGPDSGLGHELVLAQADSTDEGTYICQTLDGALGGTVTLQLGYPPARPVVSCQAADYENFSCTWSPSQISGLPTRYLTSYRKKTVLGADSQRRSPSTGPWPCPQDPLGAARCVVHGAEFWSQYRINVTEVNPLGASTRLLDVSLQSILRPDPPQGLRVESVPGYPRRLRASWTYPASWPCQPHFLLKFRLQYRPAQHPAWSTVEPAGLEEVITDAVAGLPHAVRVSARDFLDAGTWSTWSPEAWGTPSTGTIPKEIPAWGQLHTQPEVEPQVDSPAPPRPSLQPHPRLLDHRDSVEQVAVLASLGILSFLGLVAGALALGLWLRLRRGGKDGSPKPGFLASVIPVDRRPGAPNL

A549 cells = assay: IL-11 stimulation of A549 cells overexpressing human LKB1, western blot; format: cell-based; conditions: IL11 10 ng/ml; AAV8 human LKB1
Protocol: FIG. 16. IL-11 stimulates ERK-mediated phosphorylation of LKB1 serine 325(S325) and P90RSK-mediated phosphorylation of LKB1 serine 428 (S428) with subsequent inactivation of AMPK and activation of mTOR, P70RSK and S6RP. (16A) A549 cells were infected with AAV8 encoding human LKB1 (multiplicity of infection=20) for 24 hours and then stimulated with IL11 (10 ng/ml) for the indicated times (15 minutes, 2 hours, 4 hours, 6 hours, or 24 hours). Cell lysates were immunoblotted for the proteins shown. (16B) Schematic of activation of ERK (directly) and P90RSK (indirectly) by IL-11-mediated signalling and downstream effects on hallmarks of ageing. P or p; phosphorylated amino acid.
To determine the mechanism through which IL-11 stimulates phosphorylation of LKB1, A549 cells were engineered to overexpress human LKB1 (AA8-LKB1 in FIG. 16A) and treated with IL-11.

human hepatocytes [5] = assay: IL-11 stimulation in the presence of DMSO or U0126, western blot; format: cell-based; conditions: IL-11 treatment 24 hours
Protocol: (§3) FIG. 22. Western blot image showing the levels of p-ERK, ERK, p-P90RSK, P90RSK, p-LKB1, LKB1, p-AMPK, AMPK, p-mTOR, mTOR, p-p70S6K, p70S6K, p-S6RP, S6RP in primary human hepatocytes that are unstimulated (BL+DMSO) or stimulated for 24 hours with IL11 in the presence DMSO or U0126 (10 μM).
(§4) Primary human hepatic stellate cells and human hepatocytes were stimulated for 24 hours with IL-11 in the presence DMSO or U0126. As discussed in Example 4.4, the inventors observed that IL-11 treatment stimulates p-mTOR, p-70S6K and p-S6RP. In line with the inventors' hypothesis, administration of U0126 to IL-11-stimulated cells prevents ERK-mediated inactivation of LKB1/AMPK that stops IL11-induced mTORC1/P70S6K activation (FIG. 21 and FIG. 22, respectively).

[6] = system: Primary human hepatic stellate cells; assay: as above; format: cell-based; conditions: IL-11 treatment 24 hours
Protocol: as §3, with “FIG. 21.” for “FIG. 22.”, “p-S6RP, S6RP, SMA, and GAPDH” for “p-S6RP, S6RP”, “human hepatic stellate cells” for “human hepatocytes”
as §4

human hepatocytes [7] = assay: Increasing concentrations of IL-11 or IL-6, western blot p-LKB1/p-AMPK; format: cell-based; conditions: 24 hours; p-LKB1, p-AMPK
Protocol: (§5) FIG. 23. Western blot image showing the levels of p-LKB1, LKB1, p-AMPK, AMPK in primary human hepatocytes or primary human hepatic stellate cells that are unstimulated (BL) or stimulated for 24 hours with increasing concentrations (1.25, 2.5, 5, 10 or 20 ng/ml) of IL-11 or IL-6.
(§6) Primary human hepatic stellate cells (HSCs) and human hepatocytes were stimulated for 24 hours with increasing concentrations (1.25-20 ng/ml) of IL-11 or IL-6. […] The effect of IL-11 on these markers is observable at concentrations as low as 1.25 ng/ml in both HSCs and hepatocytes.

[8] = system: Primary human hepatic stellate cells (HSCs); assay: as above; format: cell-based; conditions: 24 hours; p-LKB1, p-AMPK
Protocol: as §5, §6

B1: W147A: IL-11 antagonist in which amino acid 147 is mutated from a tryptophan to an alanine (protein, UniProt P20809 22-199, looked up, variant W147A)
Interleukin-11: PGPPPGPPRVSPDPRAELDSTVLLTRSLLADTRQLAAQLRDKFPADGDHNLDSLPTLAMSAGALGALQLPGVLTRLRADLLSYLRHVQWLRRAGGSSLKTLEPELGTLQARLDRLLRRLQLLMSRLALPQPPPDPPAPPLAPPSSAAGGIRAAHAILGGLHLTLDWAVRGLLLLKTRL
blockade of IL-11 signalling (IL-11 signalling): efficient blockade

binding result [1]: binds
B2: X203, mouse anti-mouse IL-11 IgG (anti-IL-11 antagonist antibody) (antibody, V domains shown)
VH: EVQLQQSGPELVKPGASVKIPCKASGYTFTDYNMDWVKQSHGKSLEWIGDINPHNGGPIYNQKFTGKATLTVDKSSSTAYMELRSLTSEDTAVYYCARGELGHWYFDVWGTGTTVTVSS
VL: DIVLTQSPASLAVSLGQRATISCRASKSVSTSGYSYIHWYQQKPGQPPKLLIYLASNLDSGVPARFSGSGSGTDFTLNIHPVEEEDAATYYCQHSRDLPPTFGGGTKLEIK
notes: also called Enx203; anti-IL11 (X203)

B3: IL-11: Interleukin 11, pleiotropic cytokine of the IL-6 family, used to stimulate cells (protein)
chain: PGPPAGSPRVSSDPRADLDSAVLLTRSLLADTRQLAAQMRDKFPADGDHSLDSLPTLAMSAGTLGSLQLPGVLTRLRVDLMSYLRHVQWLRRAGGPSLKTLEPELGALQARLERLLRRLQLLMSRLALPQAAPDQPVIPLGPPASAWGSIRAAHAILGGLHLTLDWAVRGLLLLKTRL
level of phosphorylated LKB1 and phosphorylated mTOR [2]: increases
phosphorylation at S428 and S325 in the WT LKB1 cells [3]: induces
phosphorylation at S428 and S325 in the WT LKB1 cells (human hepatocytes [4]): induces
Kd (IL-11Rα): ~22 nM
ERK-mediated phosphorylation of LKB1 Serine 325 (S325) and P90RSK-mediated phosphorylation of LKB1 serine 428 (S428) (A549 cells): stimulates
p-mTOR, p-70S6K and p-S6RP (human hepatocytes [5]): stimulates
p-mTOR, p-70S6K and p-S6RP [6]: stimulates
lowest concentration at which the effect on these markers is observable (human hepatocytes [7]): 1.25 ng/mL
lowest concentration at which the effect on these markers is observable [8]: 1.25 ng/mL
